The source of these data is US20260347491 (published 2026).

Where two headings read alike, the source gives them in different places.

In test [1] the target is T1, human HER2 (human, UniProt P04626). Kind of test: FACS.
Test [2] concerns the target T1, human HER2. The experiment in a line: FACS. The source holds these as a separate data set.
Another test has as its target human 4-1BB (CD137) (human, UniProt Q07011). Kind of test: FACS.
In another test the target is T2, human CD32b (FcgRIIb) (human, UniProt P31994).
T2 chain: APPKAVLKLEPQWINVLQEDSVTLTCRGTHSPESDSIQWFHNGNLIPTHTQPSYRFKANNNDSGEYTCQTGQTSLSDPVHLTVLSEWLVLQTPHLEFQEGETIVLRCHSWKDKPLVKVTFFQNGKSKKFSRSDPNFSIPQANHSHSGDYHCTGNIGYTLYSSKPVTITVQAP
Kind of test: FACS, CHOS-hCD32b cells.

Chain of human 4-1BB (CD137) (Q07011 24-186): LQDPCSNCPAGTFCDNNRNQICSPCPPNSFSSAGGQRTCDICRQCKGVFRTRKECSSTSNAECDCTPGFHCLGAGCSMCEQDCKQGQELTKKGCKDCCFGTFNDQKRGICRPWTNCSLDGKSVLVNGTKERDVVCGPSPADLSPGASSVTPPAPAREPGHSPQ

B1: HER2xHER2x4-1BB-2 (both HER2 arms) (antibody)
chain 1: not shown
chain 2: not shown
chain 3: EVQLVESGGGLVQPGGSLRLSCAASGFTFTDYTMDWVRQAPGKGLEWVADVNPNSGGSIYNQRFKGRFTLSVDRSKNTLYLQMNSLRAEDTAVYYCARNLGPSFYFDYWGQGTLVTVSS
chain 4: DIQMTQSPSSLSASVGDRVTITCKASQDVSIGVAWYQQKPGKAPKLLIYSASYRYTGVPSRFSGSGSGTDFTLTISSLQPEDFATYYCQQYYIYPYTFGQGTKVEIK
As for B1, the concentration giving a half-maximal response (EC50) was found to be 2.88 nM with human HER2 [1] and 1.81 nM with human HER2 [2].

B2: Pertuzumab (antibody, V domains shown)
VH: EVQLVESGGGLVQPGGSLRLSCAASGFTFTDYTMDWVRQAPGKGLEWVADVNPNSGGSIYNQRFKGRFTLSVDRSKNTLYLQMNSLRAEDTAVYYCARNLGPSFYFDYWGQGTLVTVSS
VL: DIQMTQSPSSLSASVGDRVTITCKASQDVSIGVAWYQQKPGKAPKLLIYSASYRYTGVPSRFSGSGSGTDFTLTISSLQPEDFATYYCQQYYIYPYTFGQGTKVEIK
Consider B2, for which, in the test with human 4-1BB (CD137), the binding result is given as “no binding”.

B3: HER2xHER2x4-1BB-1 (both HER2 arms) (antibody)
chain 1: not shown
chain 2: DIQMTQSPSSLSASVGDRVTITCRASQSVQGAVAWYQQKPGKAPKLLIYSASFLYSGVPSRFSGSRSGTDFTLTISSLQPEDFATYYCQQHSTTPPTFGQGTKVEIK
chain 3: EVQLVESGGGLVQPGGSLRLSCAASGFTFTDYTMDWVRQAPGKGLEWVADVNPNSGGSIYNQRFKGRFTLSVDRSKNTLYLQMNSLRAEDTAVYYCARNLGPSFYFDYWGQGTLVTVSS
chain 4: DIQMTQSPSSLSASVGDRVTITCKASQDVSIGVAWYQQKPGKAPKLLIYSASYRYTGVPSRFSGSGSGTDFTLTISSLQPEDFATYYCQQYYIYPYTFGQGTKVEIK
Turning to B3, the EC50 with human HER2 [1] was found to be 2.65 nM; in the test with human HER2 [2] it was 1.82 nM.

B4: HER2xHER2x4-1BB-1 (full) (antibody)
chain 1: not shown
chain 2: DIQMTQSPSSLSASVGDRVTITCRASQSVQGAVAWYQQKPGKAPKLLIYSASFLYSGVPSRFSGSRSGTDFTLTISSLQPEDFATYYCQQHSTTPPTFGQGTKVEIKRTVAAPSVFIFPPSDEQLKSGRASVVCLLNNFYPREAKVQWKVDNALQSGNSQESVTEQDSKDSTYSLSSRLQLSKADYEKHKVYACEVTHQGLSSPVTKSFNRGEC
chain 3: not shown
chain 4: DIQMTQSPSSLSASVGDRVTITCKASQDVSIGVAWYQQKPGKAPKLLIYSASYRYTGVPSRFSGSGSGTDFTLTISSLQPEDFATYYCQQYYIYPYTFGQGTKVEIKRTVAAPSVFIFPPSDEELKSGTASVQCLLNNFYPREAKVQWKVDNALQSGNSQESVTEQDSKDSTYSLSSELTLSKADYEKHKVYACEVTHQGLSSPVTKSFNRGEC
With B4, the midpoint of the response with human CD32b (FcgRIIb), the EC50, lay at 1.06 nM.
